Numbering of substitutions follows the chain as printed.
B1: Example 60 (peptide)
chain: YXQGTFTSDFSXXLDKKAQXAFIEYLLAGGPSSGAPPPSEG
modifications: synthetic construct; SITE 2: note = 2-Aminoisobutyric Acid; SITE 12: note = L-ornithine; SITE 13: note = alpha-methyl-leucine; SITE 17: note = Lysine is chemically modified through conjugation of the epsilon-amino group of the Lysine side chain with (2-[2-(2-Amino-ethoxy)-ethoxy]-acetyl)-(gamma-Glu)
B2: Example 61 (peptide)
chain: B1 chain with A28E, G29X
modifications: synthetic construct; SITE 2: note = 2-Aminoisobutyric Acid; SITE 12: note = L-ornithine; SITE 13: note = alpha-methyl-leucine; SITE 17: note = Lysine is chemically modified through conjugation of the epsilon-amino group of the Lysine side chain with (2-[2-(2-Amino-ethoxy)-ethoxy]-acetyl)-(gamma-Glu)
B3: Example 640 (peptide)
chain: YXQGTXTSDXSIXLDXKAQXEFIEXLIEGGPSSGAPPPSGS
modifications: non-natural residues; Lys acylated C18 diacid; C-terminal amide; synthetic construct; SITE 2: note = 2-Aminoisobutyric Acid; SITE 6: note = alpha-methyl-2-fluoro-L-phenylalanine; SITE 10: note = 3-(4-Pyridyl)-L-alanine; SITE 13: note = alpha-methyl-leucine; SITE 16: note = L-ornithine; SITE 17: note = Lysine is chemically modified through conjugation of the epsil
B4: Example 644 (peptide)
chain: B3 chain with A35E
modifications: non-natural residues; lipidated Lys AEEA-γGlu-C18 diacid; C-term amide; synthetic construct; SITE 2: note = 2-Aminoisobutyric Acid; SITE 6: note = alpha-methyl-2-fluoro-L-phenylalanine; SITE 10: note = 3-(4-Pyridyl)-L-alanine; SITE 13: note = alpha-methyl-leucine; SITE 16: note = L-ornithine; SITE 17: note = Lysine is chemically modified through conjugation of the epsil
B5: Example 643 (peptide)
chain: B3 chain with I27Q
modifications: non-natural residues, acylated Lys (AEEA-γGlu-C18 diacid), C-terminal amide; synthetic construct; SITE 2: note = 2-Aminoisobutyric Acid; SITE 6: note = alpha-methyl-2-fluoro-L-phenylalanine; SITE 10: note = 3-(4-Pyridyl)-L-alanine; SITE 13: note = alpha-methyl-leucine; SITE 16: note = L-ornithine; SITE 17: note = Lysine is chemically modified through conjugation of the epsil
B6: Example 641 (peptide)
chain: B3 chain with I27L
modifications: Lys acylated AEEA-γGlu-C18 diacid; non-natural residues; C-terminal amide; synthetic construct; SITE 2: note = 2-Aminoisobutyric Acid; SITE 6: note = alpha-methyl-2-fluoro-L-phenylalanine; SITE 10: note = 3-(4-Pyridyl)-L-alanine; SITE 13: note = alpha-methyl-leucine; SITE 16: note = L-ornithine; SITE 17: note = Lysine is chemically modified through conjugation of the epsil
B7: Example 645 (peptide)
chain: B3 chain with I27L, A35E
modifications: non-natural residues; lipidated Lys; C-terminal amide; synthetic construct; SITE 2: note = 2-Aminoisobutyric Acid; SITE 6: note = alpha-methyl-2-fluoro-L-phenylalanine; SITE 10: note = 3-(4-Pyridyl)-L-alanine; SITE 13: note = alpha-methyl-leucine; SITE 16: note = L-ornithine; SITE 17: note = Lysine is chemically modified through conjugation of the epsil
B8: Example 642 (peptide)
chain: B3 chain with I27A
modifications: non-natural residues; acylated Lys; C-terminal amide; synthetic construct; SITE 2: note = 2-Aminoisobutyric Acid; SITE 6: note = alpha-methyl-2-fluoro-L-phenylalanine; SITE 10: note = 3-(4-Pyridyl)-L-alanine; SITE 13: note = alpha-methyl-leucine; SITE 16: note = L-ornithine; SITE 17: note = Lysine is chemically modified through conjugation of the epsil
B9: Example 646 (peptide)
chain: B3 chain with I27A
modifications: Aib, αMeF(2F), 4Pal, Orn, Me4Pal, αMeY; K (γGlu)2-C18 diacid; amide; synthetic construct; SITE 2: note = 2-Aminoisobutyric Acid; SITE 6: note = alpha-methyl-2-fluoro-L-phenylalanine; SITE 10: note = 3-(4-Pyridyl)-L-alanine; SITE 13: note = alpha-methyl-leucine; SITE 16: note = L-ornithine; SITE 17: note = Lysine is chemically modified through conjugation of the epsil
B10: Example 659 (peptide)
chain: YXQGTXTSDXSILLDKKAQXAFIEYLEEGGPSSGAPPPEGTE
modifications: synthetic construct; SITE 2: note = 2-Aminoisobutyric Acid; SITE 6: note = alpha-methyl-2-fluoro-L-phenylalanine; SITE 10: note = 3-(4-Pyridyl)-L-alanine; SITE 17: note = Lysine is chemically modified through conjugation of the epsilon-amino group of the Lysine side chain with (gamma-Glu)2-CO-(CH2)1
B11: Example 656 (peptide)
chain: YXQGTXTSDXXIXLDXKAQXXFIEXLQEGGPSSGEPPPEGTEE
modifications: acyl linker with epsilon-Lys; synthetic construct; SITE 2: note = 2-Aminoisobutyric Acid; SITE 6: note = alpha-methyl-2-fluoro-L-phenylalanine; SITE 10: note = 3-(4-Pyridyl)-L-alanine; SITE 11: note = alpha-methyl-L-serine; SITE 13: note = alpha-methyl-leucine; SITE 16: note = L-ornithine; SITE 17: note = Lysine is chemically mo
B12: Example 660 (peptide)
chain: YXQGTXTSDXSILLDKKAQXAFIEYLEEGGPSSGAPPPEGTGE
modifications: synthetic construct; SITE 2: note = 2-Aminoisobutyric Acid; SITE 6: note = alpha-methyl-2-fluoro-L-phenylalanine; SITE 10: note = 3-(4-Pyridyl)-L-alanine; SITE 17: note = Lysine is chemically modified through conjugation of the epsilon-amino group of the Lysine side chain with (gamma-Glu)2-CO-(CH2)1
B13: Example 668 (peptide)
chain: B12 chain with Y25X, E39S, T41G
modifications: synthetic construct; SITE 2: note = 2-Aminoisobutyric Acid; SITE 6: note = alpha-methyl-2-fluoro-L-phenylalanine; SITE 10: note = 3-(4-Pyridyl)-L-alanine; SITE 17: note = Lysine is chemically modified through conjugation of the epsilon-amino group of the Lysine side chain with (gamma-Glu)2-CO-(CH2)1
B14: Example 664 (peptide)
chain: B12 chain with Y25X, E39S
modifications: synthetic construct; SITE 2: note = 2-Aminoisobutyric Acid; SITE 6: note = alpha-methyl-2-fluoro-L-phenylalanine; SITE 10: note = 3-(4-Pyridyl)-L-alanine; SITE 17: note = Lysine is chemically modified through conjugation of the epsilon-amino group of the Lysine side chain with (gamma-Glu)2-CO-(CH2)1
B15: Example 667 (peptide)
chain: B12 chain with Y25X, E39S, T41E
modifications: synthetic construct; SITE 2: note = 2-Aminoisobutyric Acid; SITE 6: note = alpha-methyl-2-fluoro-L-phenylalanine; SITE 10: note = 3-(4-Pyridyl)-L-alanine; SITE 17: note = Lysine is chemically modified through conjugation of the epsilon-amino group of the Lysine side chain with (gamma-Glu)2-CO-(CH2)1
B16: Example 665 (peptide)
chain: B12 chain with K16X, Y25X, E39S
modifications: synthetic construct; SITE 2: note = 2-Aminoisobutyric Acid; SITE 6: note = alpha-methyl-2-fluoro-L-phenylalanine; SITE 10: note = 3-(4-Pyridyl)-L-alanine; SITE 16: note = L-ornithine; SITE 17: note = Lysine is chemically modified through conjugation of the epsilon-amino group of the Lysine side chai

Each binder was assayed against human glucagon receptor (human) (UniProt P47871) (assay: cell-based or functional assay).
human glucagon receptor (human), sequence (P47871 26-477): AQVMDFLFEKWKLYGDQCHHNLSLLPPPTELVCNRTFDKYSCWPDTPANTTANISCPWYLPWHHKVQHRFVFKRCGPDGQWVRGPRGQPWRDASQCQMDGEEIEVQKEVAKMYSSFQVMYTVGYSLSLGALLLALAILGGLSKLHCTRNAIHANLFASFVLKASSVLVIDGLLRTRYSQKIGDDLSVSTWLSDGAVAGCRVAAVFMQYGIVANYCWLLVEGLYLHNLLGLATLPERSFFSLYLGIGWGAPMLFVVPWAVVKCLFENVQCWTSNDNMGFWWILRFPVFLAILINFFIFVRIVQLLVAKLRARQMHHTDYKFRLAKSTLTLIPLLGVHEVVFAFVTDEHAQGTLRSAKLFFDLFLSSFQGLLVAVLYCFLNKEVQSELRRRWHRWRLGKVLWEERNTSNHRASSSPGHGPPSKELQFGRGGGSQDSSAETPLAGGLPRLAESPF
B1 gave a Relative cAMP EC50 of 8.96 nM and a cAMP Rel EC50, nM (in the presence of 1% HSA) of 1210 nM.
B2 showed a Relative cAMP EC50 of 3.57 nM and a cAMP Rel EC50, nM (in the presence of 1% HSA) of 1310 nM.
B3 was tested, and the Relative cAMP EC50 was 9.5 nM and the cAMP Rel EC50 (in the presence of 1% HSA) was 730 nM.
B4 gave a Relative cAMP EC50 of 5.91 nM and a cAMP Rel EC50 (in the presence of 1% HSA) of 626 nM.
B5 gave a Relative cAMP EC50 of 16 nM and a cAMP Rel EC50 (in the presence of 1% HSA) of 1170 nM.
Binder B6 has a Relative cAMP EC50 of 3.72 nM and a cAMP Rel EC50 (in the presence of 1% HSA) of 451 nM.
Work on B7 yielded a Relative cAMP EC50 of 3.25 nM and a cAMP Rel EC50 (in the presence of 1% HSA) of 398 nM.
In the case of B8, the Relative cAMP EC50 is reported as 3.49 nM and the cAMP Rel EC50 (in the presence of 1% HSA) is reported as 519 nM.
Work on B9 yielded a Relative cAMP EC50 of 23.1 nM and a cAMP Rel EC50 (in the presence of 1% HSA) of 1260 nM.
B10 gave a cAMP Rel EC50 (1% HSA) of 735 nM.
In the case of B11, the cAMP Rel EC50 (1% HSA) is reported as 662 nM.
B12 was tested, and the cAMP Rel EC50 (1% HSA) was 455 nM.
For B13, the cAMP Rel EC50 (1% HSA) was 203 nM.
B14 showed a cAMP Rel EC50 (1% HSA) of 179 nM.
With B15 the cAMP Rel EC50 (1% HSA) was 215 nM.
B16 was tested, and the cAMP Rel EC50 (1% HSA) was 285 nM.

The binders below were run against T1, human GIP receptor (human) (UniProt P48546) (assay: cell-based or functional assay).
T1 sequence (looked up): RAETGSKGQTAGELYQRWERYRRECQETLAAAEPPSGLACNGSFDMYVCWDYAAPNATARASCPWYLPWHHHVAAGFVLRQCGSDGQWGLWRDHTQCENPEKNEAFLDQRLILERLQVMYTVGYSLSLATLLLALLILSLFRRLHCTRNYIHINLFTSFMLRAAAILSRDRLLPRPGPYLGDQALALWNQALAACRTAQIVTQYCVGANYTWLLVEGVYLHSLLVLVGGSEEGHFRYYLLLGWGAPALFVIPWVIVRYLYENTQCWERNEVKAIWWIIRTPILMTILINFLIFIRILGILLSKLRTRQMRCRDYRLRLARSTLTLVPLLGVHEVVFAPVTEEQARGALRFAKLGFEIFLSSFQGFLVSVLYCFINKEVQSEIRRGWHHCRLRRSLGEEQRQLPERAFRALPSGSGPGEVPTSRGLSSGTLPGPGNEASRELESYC
With B1 the Relative cAMP EC50 was 0.135 nM and the cAMP Rel EC50, nM (in the presence of 1% HSA) was 33 nM.
In the case of B2, the Relative cAMP EC50 is reported as 0.122 nM and the cAMP Rel EC50, nM (in the presence of 1% HSA) is reported as 55.2 nM.
B3 gave a Relative cAMP EC50 of 0.00696 nM and a cAMP Rel EC50 (in the presence of 1% HSA) of 0.591 nM.
In the case of B4, the Relative cAMP EC50 is reported as 0.00649 nM and the cAMP Rel EC50 (in the presence of 1% HSA) is reported as 0.601 nM.
Binder B5 has a Relative cAMP EC50 of 0.0223 nM and a cAMP Rel EC50 (in the presence of 1% HSA) of 1.61 nM.
B6 was tested, and the Relative cAMP EC50 was 0.00819 nM and the cAMP Rel EC50 (in the presence of 1% HSA) was 0.832 nM.
Work on B7 yielded a Relative cAMP EC50 of 0.00724 nM and a cAMP Rel EC50 (in the presence of 1% HSA) of 0.863 nM.
B8 showed a Relative cAMP EC50 of 0.00796 nM and a cAMP Rel EC50 (in the presence of 1% HSA) of 0.791 nM.
Work on B9 yielded a Relative cAMP EC50 of 0.0336 nM and a cAMP Rel EC50 (in the presence of 1% HSA) of 1.09 nM.
B10 showed a cAMP Rel EC50 (1% HSA) of 5.75 nM.
B11 was tested, and the cAMP Rel EC50 (1% HSA) was 7.13 nM.
For B12, the cAMP Rel EC50 (1% HSA) was 4.64 nM.
B13 was tested, and the cAMP Rel EC50 (1% HSA) was 1.69 nM.
B14 showed a cAMP Rel EC50 (1% HSA) of 1.18 nM.
Binder B15 has a cAMP Rel EC50 (1% HSA) of 1.46 nM.
With B16 the cAMP Rel EC50 (1% HSA) was 2.1 nM.

What follows are binders tested against hGLP-1R (Homo sapiens, UniProt P43220) (assay: cell-based or functional assay).
hGLP-1R, sequence (P43220 24-463): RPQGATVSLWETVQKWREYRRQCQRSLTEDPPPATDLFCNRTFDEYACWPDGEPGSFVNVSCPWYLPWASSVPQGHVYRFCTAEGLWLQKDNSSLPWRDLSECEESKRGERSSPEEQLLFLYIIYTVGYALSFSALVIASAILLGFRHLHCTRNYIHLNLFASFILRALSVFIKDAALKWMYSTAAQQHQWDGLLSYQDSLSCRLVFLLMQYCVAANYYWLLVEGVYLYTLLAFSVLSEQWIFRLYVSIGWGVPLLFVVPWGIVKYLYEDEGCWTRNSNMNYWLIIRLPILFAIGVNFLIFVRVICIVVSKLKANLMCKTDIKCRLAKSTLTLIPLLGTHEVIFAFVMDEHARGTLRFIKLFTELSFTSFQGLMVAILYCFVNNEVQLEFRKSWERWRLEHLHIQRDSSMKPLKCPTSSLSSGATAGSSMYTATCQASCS
B1 gave a Relative cAMP EC50 of 1.93 nM and a cAMP Rel EC50, nM (in the presence of 1% HSA) of 409 nM.
For B2, the Relative cAMP EC50 was 2.05 nM and the cAMP Rel EC50, nM (in the presence of 1% HSA) was 704 nM.
Work on B3 yielded a Relative cAMP EC50 of 0.288 nM and a cAMP Rel EC50 (in the presence of 1% HSA) of 27.8 nM.
Binder B4 has a Relative cAMP EC50 of 0.309 nM and a cAMP Rel EC50 (in the presence of 1% HSA) of 34.3 nM.
In the case of B5, the Relative cAMP EC50 is reported as 0.741 nM and the cAMP Rel EC50 (in the presence of 1% HSA) is reported as 60.1 nM.
Binder B6 has a Relative cAMP EC50 of 0.489 nM and a cAMP Rel EC50 (in the presence of 1% HSA) of 68.3 nM.
B7 showed a Relative cAMP EC50 of 0.596 nM and a cAMP Rel EC50 (in the presence of 1% HSA) of 76.3 nM.
B8 gave a Relative cAMP EC50 of 0.474 nM and a cAMP Rel EC50 (in the presence of 1% HSA) of 67.1 nM.
B9 gave a Relative cAMP EC50 of 2.58 nM and a cAMP Rel EC50 (in the presence of 1% HSA) of 90.5 nM.
B10 gave a cAMP Rel EC50 (1% HSA) of 81.5 nM.
B11 was tested, and the cAMP Rel EC50 (1% HSA) was 119 nM.
B12 showed a cAMP Rel EC50 (1% HSA) of 76.9 nM.
B13 showed a cAMP Rel EC50 (1% HSA) of 27.1 nM.
In the case of B14, the cAMP Rel EC50 (1% HSA) is reported as 27.7 nM.
In the case of B15, the cAMP Rel EC50 (1% HSA) is reported as 33 nM.
B16 showed a cAMP Rel EC50 (1% HSA) of 32.8 nM.

Source: patent US20240270821A1, “GIP/GLP1/GCG TRI-RECEPTOR AGONISTS AND USES THEREOF” (priority 2023, published 2024)
